Experiment: protease stability score; higher = more stable; yeast display proteolysis, trypsin and chymotrypsin;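 further: relative to predicted unfolded state with 0 unfolded-like and 1 meaning tenfold more protease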

| Sequence | protease stability score |
| --- | --- |
| DEDEEDMRHALELIYRTFETGDERTTEELMDPHARIDIGEFKLHGREEAVEFYRLLLRKVKNLTIKIHHVEVYGEKITIDGRIDFDGRKRRVIILVEKVDGKWVINEIRVH | 1.42 |
| DEDDRVAEHALRLLFELLRTGDWEHILEMFDPNMRLDFDGKKWHGRESFRELFTRFLEEIRIHDVKVEDFKVFDGRVEVDTRIRGKYGDKETKLETKIVALKINGRWVLESSHYN | 0.898 |
| DEEEEEILRVWEILIHLFVTGDEEKFSKMADPDYKWHQGDKSRIGRESMREHIKKFLEELRIKELHLHHTHVFDGRYEADVELRGHINGRESRIKSRIILEVYNGRVKLFIIDIR | 0.559 |
| DELTHAVTRFHKETMDAVRTGNEEWHSRLLDPNTRIHIGEFNNVGMEQVIEILRRVKNLRIHHVHLDHIDFYDGRADIHGTVHGIWNGRHRKVKHEHFLLKIDGVWYLEEIRVE | 0.371 |
| EEEERVAVEFFRTLQESIRTGDEKTVKELADPNTRLDVGDKHFHGMEEIRKYWLRFDHFERHTLREEDFDVVNGVMSVHGRLEVHGRYNGQRVHTHYHMVIFVLKVNGRWKITEIKLH | 1 |
| DEEEETIRRDAKLTLDLIRTGDEEHLKKMLDPHVRLQIVIGDKTIENHGREEVIRRLRHEWKRFKNMRILIEDKRVVGNWVHFFGTILYNGVEHEAVLDLVLIDGVLHSIRINVI | 1.6 |
| DEEHEETHRWVELFIRHHLTGDEDFIMKMLDPNTRWHIDGRTFHGMETVFDARKKERNKLGADHVRFTSFEIQGDFLHILGSIHIDGKELDEKIIIEVIDGRLNSILVTRR | 0.661 |
| SEDEELAQTFLELWVHFLRTGDESMLEQYIDPHARFKVGDKEDHGMKVFKDLLHHIRIEDFRVHHVEIRIVGEWIEIRMDITLHGRVDGVRDTKRVHVHINAEKYNGRWRIKELEIRHR | 1.74 |
| DEDERDFRHYMELFQKAHETGDEDHFIKMMDPNARFLINGVHLHGWKEFVRLLEHIRMDVSDTRIRTVDSQGDKVRADTELIFRGKIDGREIDVTFETRIIIEKVDGRWHLREIRVH | 1.3 |
| SEDEKMFKEMKDLLLEILRTGDEDSWSHLADPDYRMDINGRIDHGMEEASRSLTEFLRKLGIDHLDIKDSKVTLVNGRAIIILHEETKVNGRKFNLRIINIVSKVNGKWSIESFSMSIE | 1.29 |
| DEEEEDIEKFFKEWTRNVLTGNWERLRELADPHAKAVVDGVETHGMESLDKLIDESERKLGVDHTHLESVHVQGEWIHFHLRIIIGDKYLKLHIHTLVIDGRVKSMNVEFHSD | 1.16 |
| DEVEELIEENRRFFEESWMTGDEDSLRKNADPNVRLKVGEFHLIGREAFETWARQAVHMDSIEIHHMHFFDGVVHSITHFDGKFNGRKERHSIYLVELKVNGRWLNHEIRLK | 0.511 |
| DDLEHDHKTVLELLKHLEETGDWDRLAKLADPNVRLQIGDKEWHGRRDMAKVLKRFIEEMRIQHIRFRDMKIQGDKLVFDTELDFEQGDKTVHVRTEIILVVVNGQLKSIEIRIE | 2.44 |
| SDEETITREYIRILIKMMRTGDESTLTRLADPHVRVDINGKDLHGRESLVEEMHKLIRDLGVERIEVHFRNIHIQGEWIVIHIDLQIGDKRFEVRDIALKIDGRWVHKSIEIQ | 1.33 |
| DEIEEKIETHIKILLHASRTGDWELNSHNADPHTRIDIDGVELHGMEHFFTIMKEMRMKEYTLHHIEVQGEKIRIRGELRGEWDGKEEVVDVILIIVKIDGKWLIKEVRFR | 1.07 |
| SEEEEVMERFVELLIKLLITGDEEVLEHLMDPNVRIQIGDKVYHGREVARDLWRRYHRHWRIHDTEVKHHHVQGEFIEIHISIDGEIDGRREEERIIFFVVKINGRWLLHDIHFN | 2.51 |
| SEDEETLSEAIRLLLESLQTGDWRTFDKLIDPHARLVIDGKELHGRDLITTLLTHWRVEHFKIRHIEVQGEKVRIEGEVRGDIDGRKKDTHVRLTAEKINGRWLTQIVIIH | 1.98 |
| DDEKRWLEELWKDIQRADETGDEEHFLHLADPHVRFHVNGRDVHGMELVAHILLKWLNEIRIKDFRLKDMRMFENHLRVDGSIVLIVNGQEIETDMILRFEVVNGRIKDREIDIR | 1.37 |
| SEEEEEMKLAKRLLENISETGDERELEELLDPNVRIVIGDKHEHGRESVEHWFRRIDHIKHFEIERVTVFDGRVEMHGRMVGTINGKHKNTRITLIAVKINGRWVLQHRILE | 0.245 |
| DEEQHRMEEELRKMFEHLFTGDFKWLHKNVDPNARLDIGDKHVHGREAMVELIIRHVESLGVDHVKIRHVEVQGEKIEIRGESKVGDWKFSHHINVIVVDGVHKHFRIENR | 0.684 |
| SEEEEMVKVALELLKHSLETGDERLMLRQIDPHAKFDVDGKEHHGRDVFREIEERVDVLHLDHVEIQHVHIQGNKLHIHLEMRSTFLFNGRTFHYRLHYEIIMFKFNGKWLITSLQLR | 0.485 |
| SENKRVAVEWVRDFLRALRTGDEDRVRQLADPHVRIDFNGRDHHGRHFLVRMLREIRIHDVRIRDVDVQGDFLITELEIDVEIDGKRDTLRMNIIFEKVDGRWMVSEVQFE | 1.5 |
| DENETALREVIKRYFKAILTGDEHELENLLDPNVRVEINGVKLHGMRDYLEWIREWRIKDMRIRIEHVEVIGNKMIIDSRLRVNETVNGVTRDREKKLHLIVTKINGRWHIEEINEE | 2.16 |
| DDEEDKAREAFKMLQELVNTGNEELLYQYFDPNYRLDVDGRQIHGREAVVNERRKRFEMWGVEQVRLHIDTWDIIGNKVKLDGHLNFNGVIKKTHIHLLKVNGRWVIESERIE | 1.08 |
| DELAEYAKEVIERIDHSITTGDERSVKRLLDPDVKLLIGDKELHGREDWEEWMKRIDHVSVRDSRIKEVKVYDGRLRIDGHKRMYYFNENEEREHTTRVVIILLKIDGRWVMHSVHFI | 1.4 |

| Sequence | protease stability score |
| --- | --- |
| SEDERDAKMFIDLLNEAMHTGDEQIIKDLVDPHVKIFVGDKIYIGWERYRHMLEEIRIHRWDSEIKRYRVFDGRLEVEGVLHFDVEVNGKRREISTHVELHFDKFDGRWIVREISVH | 1.76 |
| TENKRDLDLLIKLHLYLHKTGDWERLFKLMDPHARLEVGDFHIHGREEVIRWFVELMERVKNMRFDLQDRKVEVQGEKVIVRSDVEVNIDGVVIRVYLEVDSIKVDGKWHLHSERIELR | 1.29 |
| DEDTQTLEKIWRDFVRALRTGDEDHLSRLLDPNTRIDINGKESHGRERAEEVLREMFERIDHFHRVEIHDRREVNGRVNLDTRRDVEVNGVRDMYTTHLIILKVDGKWSMKTIELK | 1.33 |
| SEEEEELTKWKKILEEALKTGDWRLIEELFDPHVRFIINGRHIHGMEVRLKEQEELGVNHESQELRDKHIEHQGDKVVINGHLNKIVFVNGKDLHDRYDIIFIYTKINGRWYVKRMIVN | 0.502 |
| DHDTRRHEKILSDYAHALHTGNFHMLKELMDPHVRLEIGDKEFVGREEVMRYLQHIRSYIHRLRIDHIEIQGDKIHSDVREHLHFEIGDKDHNHDTRVEQLWLKVNGRWLLQQIVVR | 2.16 |
| SEDVERVRHSIIVWLHILLTGDEETISKYADPNARYVQGDKHHHGMEYIAIKIRELRWSVTMEIEHMHVVDGRAHIEGRLILRIHINGKEDVEDHELELHMIKVDGKWILHEIKIK | 1.59 |
| EEEEKHEREMAKIMLDVLRTGDEELFERMFDPNTRYEVGDKILHGRHEVLRNWLEMIKKFKNARFITRHVHVFNGVLHINIEVRFDGRTHEYHIDLFFWDGRFKEVRVESH | 1.54 |
| DEVEHHMKTITDRLLTAIETGDEDEWERLLDPRVRVDIGDKHIHGREDYNRKFRERGFEIKRWEMKDMDVINGQIRIDGHRKIHIDGVTTRNTVHIIIVVYNGRVKHFEHRHE | 0.578 |
| SEEDEHLERLFRDLIDSFVTGDEDSWHQLADPNARLIVGDKTYHGREKISEYWRRMREEIRVEIKVDHVDIQGDKVHSRVTLIVRINGREIRRDTHMLIIVWNGRFKEERIIPR | 1.25 |
| DEEEKIIEHVLRLLAEALSTGDEDTLDKLVDPNARVMIDGVDIHGMESMTEWLKHLRIERVHVELRDYREFNGKIHVDGVLHVDRRIGDKREHVSSKTTFIFTKVDGRWKVESIKIK | 2.42 |
| DEDREAIELLVRLLITAHETGDEKILWDLMDPNVRYHQGNFELHGREEIMELESRLRKHLGINHISFRLHDMQHIGDKLILHGSLMFRIGDKEHHTEVDIIVIKINGKWLIESIFIR | 1.57 |
| DEERKIAEKFAELYQHWEHTGNEDEMRSFFDPNYRLFVGEKEFVGRKTRSRWHREYIEKLGVDHVEIQDYRVQGNFVESDLVLRFNGREVKTEIRINVIDGRIKEVHIITH | 0.198 |
| DEDEKLSKFAIDNFIQLMLTGDEDSLLHLADPNARLHFNGVEIHGMEEVQERLMRERKERGVRIHSIHIEHIDIQGDWIIVHMHITQRVNGKEESIERILILLKINGRWHLHQIRLH | 1.28 |
| HEYEEEVTKAIEVLLHLLMTGDFDQMLHLADPNYRVDINGQEYIGREWFEVIRDKFKNVKIKDMHIDHVIFIGDKVIIHSREHRQQGDKERTFTVVLYSRKINGQWVHTSVKFS | 1.59 |
| SDIEDESEKFVRMFLHSYETGDWKSLREMFDPNARTIIGDKHTHGRELAVELWEDLFKRLGIKHIEVTHVHIRVINGRIDVRIEVHLNQGEFRYHIIIIVHVTKFNGVWLLTEFRIEEK | 1.27 |
| TEEEEEARRALEEWIHNLMTGDEKRELELADPHVRILIDINGREIHMHGWEQFERWVHEEMRRLGLDRFEVRLEHIEIQGDKSVLDGRINYNGVDERNNIILVVVDGKLRQIRIHVI | 1.95 |
| DEDERLLKELLESLIKSHRTGDWEHLRENADPRTRLEIGDKEIIGMEKVTHFWERERKRADHEHIEIHDMKIYDGVAHVDTRLHFHFNGVDITLEFRLIMLKVNGRWILKSEHLK | 0.133 |
| TEEEKELRHLYNRWLKDLQTGDEDSFRHLADPNVRLIVGDKDHHGWETSAQWMRELRERVDHLEIIVDSSHVINGRIESDTTIRLRVGDKTIEYRAEFEIDIVNGKMKRIVVREH | 0.998 |
| SEREKHWRDWVENVVEYHTHLLETGDEEEWKRFFRRLADPHVRMIVGDKVTHGREDAMRLFDELIKLLGVNHVHFRRVEIIGNKVNIDVELRQGNKFINLELILIVIDGKLENVERRVH | 1.14 |
| SEDDEKVREAFELWARLVLTGDEEIIEKMVDPHMRIEIGDKELHGRDELRRWIREIRIRDIDVHDVRVQGDKAESDLKVRMDIDGVETRRHTHLIMHKFDGRWIIESIDVR | 1.36 |
| TEEQEIIQKFLDEMMEYLETGDEHSLRRLADPHARWDVNGREYHGRELFITFFSELTHKLGWTIQKIEIESKRRVGEYVSFRMTIHSEVDGRHKVIIYNFFVFKVNGKWFLKSFKEE | 1.47 |
| SEEEEEMEKVAKRWFWAVLTGNEDELHELLDPEAKSDVNGRDTHGREEVVRLMTEHVEKLGVDHVKVHDVKIQGNKFHFDGILIFNGVTVHSRVELDLINGKVHYMSIKLQ | 1.1 |
| DNESHLAEEWFRWFIDWMQTGNEEETRKFADPNVRFDINGVEIHGMKLYEDHIKHLGFRQDIRIRHIDTYDGQVDVDTEVRINVNGVEIRHKTRTNLIMIDGKLKTLTVKLE | 1.01 |
| DEDERESHNFMHEMEKAAKTGDWRKFEEMFDPDVRTIIGDKEDHGWEVAVKLFLDLGIKVLKVKRVDVVDGRLELEMELHFNGVIRKVTLRTKKVNGRWQVKELRFE | 1.57 |
| DDRSEHAIHAFYEWWERFLTGDEKRLYELADPNTRLHVNGQRIHGMEEIMERILDLLKRVKNMRVDFDVRDVELQGDKIILRIEIILKYNGQKVRIDVHIISRKINGRWFLEQEREE | 0.558 |
